What all share (test): filter binding
The target of one data set is T1, Cdc13-MOB-DBD (Saccharomyces cerevisiae, UniProt P32797 344-694).
T1 sequence: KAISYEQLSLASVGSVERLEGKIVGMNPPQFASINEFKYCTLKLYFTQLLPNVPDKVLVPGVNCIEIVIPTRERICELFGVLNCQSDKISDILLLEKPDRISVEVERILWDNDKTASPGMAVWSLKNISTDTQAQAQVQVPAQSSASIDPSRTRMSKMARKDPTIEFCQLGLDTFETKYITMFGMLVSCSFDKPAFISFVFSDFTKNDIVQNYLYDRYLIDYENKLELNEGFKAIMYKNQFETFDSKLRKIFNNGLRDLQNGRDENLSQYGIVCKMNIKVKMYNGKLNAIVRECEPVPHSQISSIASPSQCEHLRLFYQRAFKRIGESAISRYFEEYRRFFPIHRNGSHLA

The next data set addresses T2, Cdc13-L91R (Saccharomyces cerevisiae, UniProt P32797 1-924, L91R).
T2 sequence: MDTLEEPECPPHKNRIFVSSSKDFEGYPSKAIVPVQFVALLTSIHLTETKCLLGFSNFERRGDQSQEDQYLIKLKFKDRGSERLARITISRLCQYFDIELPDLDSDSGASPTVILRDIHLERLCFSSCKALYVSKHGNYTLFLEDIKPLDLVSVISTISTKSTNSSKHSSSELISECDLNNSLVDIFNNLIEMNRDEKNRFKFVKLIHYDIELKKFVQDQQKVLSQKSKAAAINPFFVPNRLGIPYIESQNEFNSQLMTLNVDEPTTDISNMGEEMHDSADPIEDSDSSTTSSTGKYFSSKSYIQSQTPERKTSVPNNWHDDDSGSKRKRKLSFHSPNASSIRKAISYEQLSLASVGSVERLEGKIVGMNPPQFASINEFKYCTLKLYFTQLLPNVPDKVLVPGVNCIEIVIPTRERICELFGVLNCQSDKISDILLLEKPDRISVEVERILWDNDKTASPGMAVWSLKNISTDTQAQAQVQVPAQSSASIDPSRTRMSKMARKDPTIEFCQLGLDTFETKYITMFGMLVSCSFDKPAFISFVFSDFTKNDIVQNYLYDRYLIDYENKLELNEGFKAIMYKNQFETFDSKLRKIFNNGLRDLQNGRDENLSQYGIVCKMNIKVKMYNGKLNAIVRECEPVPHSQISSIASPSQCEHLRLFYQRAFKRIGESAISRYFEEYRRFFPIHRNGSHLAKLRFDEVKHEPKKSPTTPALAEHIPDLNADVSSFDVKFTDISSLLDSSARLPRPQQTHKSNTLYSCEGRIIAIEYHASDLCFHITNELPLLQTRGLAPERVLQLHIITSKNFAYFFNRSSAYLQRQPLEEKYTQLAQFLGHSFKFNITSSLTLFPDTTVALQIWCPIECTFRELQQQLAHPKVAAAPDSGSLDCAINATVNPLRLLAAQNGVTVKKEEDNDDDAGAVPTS

A further data set addresses T3, Cdc13-DBD (Saccharomyces cerevisiae, UniProt P32797 497-694).
T3 sequence: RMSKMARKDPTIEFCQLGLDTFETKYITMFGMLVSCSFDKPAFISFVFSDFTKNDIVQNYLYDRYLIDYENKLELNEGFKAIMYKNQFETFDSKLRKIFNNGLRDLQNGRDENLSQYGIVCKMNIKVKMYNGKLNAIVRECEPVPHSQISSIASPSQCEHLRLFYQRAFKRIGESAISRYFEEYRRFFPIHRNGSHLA

A further data set deals with T4, Cdc13 (Saccharomyces cerevisiae, UniProt P32797 1-924).
T4 sequence: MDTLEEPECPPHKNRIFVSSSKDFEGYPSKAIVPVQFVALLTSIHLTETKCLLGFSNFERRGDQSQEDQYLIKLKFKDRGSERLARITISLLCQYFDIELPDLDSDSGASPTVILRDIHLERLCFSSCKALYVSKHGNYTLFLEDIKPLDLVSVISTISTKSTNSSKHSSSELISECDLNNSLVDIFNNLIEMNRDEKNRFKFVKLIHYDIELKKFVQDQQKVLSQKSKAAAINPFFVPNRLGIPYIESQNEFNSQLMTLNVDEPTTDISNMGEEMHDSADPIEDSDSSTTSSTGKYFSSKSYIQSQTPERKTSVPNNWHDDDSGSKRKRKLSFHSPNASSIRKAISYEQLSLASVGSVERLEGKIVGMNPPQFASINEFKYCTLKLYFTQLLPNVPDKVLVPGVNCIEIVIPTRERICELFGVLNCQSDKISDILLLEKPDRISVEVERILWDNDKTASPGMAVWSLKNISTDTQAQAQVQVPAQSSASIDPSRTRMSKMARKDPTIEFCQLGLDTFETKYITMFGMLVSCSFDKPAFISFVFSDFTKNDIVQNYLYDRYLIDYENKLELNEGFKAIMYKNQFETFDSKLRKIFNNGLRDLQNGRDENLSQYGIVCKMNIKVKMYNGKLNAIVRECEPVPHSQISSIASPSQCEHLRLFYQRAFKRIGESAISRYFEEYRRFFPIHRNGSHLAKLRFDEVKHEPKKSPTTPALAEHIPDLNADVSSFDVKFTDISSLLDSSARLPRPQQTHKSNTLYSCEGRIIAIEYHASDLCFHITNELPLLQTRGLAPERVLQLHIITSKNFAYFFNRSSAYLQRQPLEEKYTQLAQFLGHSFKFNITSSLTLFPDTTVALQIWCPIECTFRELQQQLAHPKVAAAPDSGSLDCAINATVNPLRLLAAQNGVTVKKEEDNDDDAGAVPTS

In general, Kd refers to the concentration at which binding is half-saturated. High values mean a looser complex, low ones a tighter complex.

On to GTGTGGGTGTG (ssDNA) [Tel11], for which the Kd worked out at 0.18 ± 0.03 nM with Cdc13-MOB-DBD, 0.22 ± 0.05 nM with Cdc13-L91R, 0.21 ± 0.02 nM with Cdc13-DBD and 0.41 ± 0.04 nM with Cdc13.

Values taken from article PMC3874162 (Nucleic Acids Research, 2013).
